According to the Immune Epitope Database (IEDB):

How the values were obtained:
HLA-B*07:02 = assay: IEDB peptide-MHC binding, purified MHC/direct/fluorescence; filed as Kd, often an IC50 or EC50 that approximates it; ≥ and ≤ were set here for values at or beyond the usual limits of such assays
HLA-A*02:01 [1] = assay: as above
HLA-B*53:01 = assay: IEDB peptide-MHC binding, purified MHC/competitive/radioactivity; filed as Kd, often an IC50 or EC50 that approximates it; ≥ and ≤ were set here for values at or beyond the usual limits of such assays
HLA-A*30:02 = assay: as above
HLA-A*69:01 = assay: IEDB peptide-MHC binding, purified MHC/direct/fluorescence; filed as Kd, often an IC50 or EC50 that approximates it; ≥ and ≤ were set here for values at or beyond the usual limits of such assays
HLA-A*01:01 = assay: as above
HLA-A*11:01 = assay: as above
HLA-B*40:01 = assay: as above
HLA-B*51:01 = assay: IEDB peptide-MHC binding, purified MHC/competitive/radioactivity; filed as Kd, often an IC50 or EC50 that approximates it; ≥ and ≤ were set here for values at or beyond the usual limits of such assays
HLA-A*02:06 = assay: as above
HLA-A*03:01 = assay: IEDB peptide-MHC binding, purified MHC/direct/fluorescence; filed as Kd, often an IC50 or EC50 that approximates it; ≥ and ≤ were set here for values at or beyond the usual limits of such assays
HLA-B*15:01 = assay: as above
HLA-A*02:02 = assay: IEDB peptide-MHC binding, purified MHC/competitive/radioactivity; filed as Kd, often an IC50 or EC50 that approximates it; ≥ and ≤ were set here for values at or beyond the usual limits of such assays
HLA-A*02:03 = assay: as above
HLA-B*58:01 = assay: IEDB peptide-MHC binding, purified MHC/direct/fluorescence; filed as Kd, often an IC50 or EC50 that approximates it; ≥ and ≤ were set here for values at or beyond the usual limits of such assays; settings: source organism: Pseudomonas aeruginosa
HLA-A*02:01 [2] = assay: IEDB peptide-MHC binding, purified MHC/competitive/fluorescence; filed as Kd, often an IC50 or EC50 that approximates it; ≥ and ≤ were set here for values at or beyond the usual limits of such assays
[3] = source organism: Human immunodeficiency virus 1
[4] = source organism: Dengue virus 4 Philippines/H241/1956
[5] = source organism: Dengue virus 3 Martinique/1243/1999
[6] = source organism: Burkholderia pseudomallei
[7] = source organism: Dengue virus 1 Brazil/97-11/1997
[8] = source organism: Campylobacter jejuni RM1221
[9] = source organism: Orthomarburgvirus marburgense
[10] = source organism: West Nile virus
[11] = source organism: Vibrio vulnificus
[12] = source organism: Vaccinia virus WR
[13] = source organism: Pseudomonas aeruginosa
[14] = source organism: Francisella tularensis subsp. holarctica LVS
[15] = source organism: Mammarenavirus whitewaterense
[16] = source organism: Mammarenavirus juninense

Which Kd (HLA-B*07:02; source organism: Danio rerio) does the source give for AARHKHQVM here?
The Kd was 64.8 nM.

Which results are given for ATPQDLNTM?
Kd (HLA-A*02:01 [1]; [3]): ≥ 28800 nM; Kd (HLA-B*07:02; [3]): 11200 nM

How did the Kd (HLA-B*53:01; [4]) turn out when CAIILGGLTW was run?
The Kd was 549 nM.

CNLTSTWVTY was tested. Which Kd (HLA-A*30:02; [5]) did it give?
Its Kd is at least 68900 nM.

What does the source list for DAAVVFPPV?
Kd (HLA-A*02:01 [1]; [6]): ≥ 20000 nM; Kd (HLA-A*69:01; [6]): 0.4 nM

What does the source list for DSDGSFFLY?
Kd (HLA-A*01:01; source organism: Homo sapiens): 25 nM; Kd (HLA-A*11:01; source organism: Homo sapiens): ≥ 20600 nM; Kd (HLA-A*69:01; source organism: Homo sapiens): ≥ 25100 nM

EEFCDMLRL was tested. Which Kd (HLA-B*40:01; source organism: Mammarenavirus lassaense) did it give?
Its Kd is 255 nM.

With EEFFCVHGM as the sequence, how does the Kd (HLA-B*40:01; source organism: Mycobacterium tuberculosis) read?
The Kd was 167 nM.

With FGCKPLTMFL as the sequence, how does the Kd (HLA-B*51:01; [7]) read?
The Kd was at least 35100 nM.

For FKLTYQNKVV, which Kd (HLA-B*51:01; source organism: Dengue virus 2 Jamaica/1409/1983) is on record?
The Kd was at least 60000 nM.

How did the Kd (HLA-A*02:06; [7]) turn out when FSLGILCVSI was run?
The Kd was 3.63 nM.

What about the Kd (HLA-B*51:01; [7]) of the same sequence?
Its Kd is at least 39500 nM.

Which Kd (HLA-B*53:01; [7]) does the source give for FVEGLSGATW here?
Its Kd is 14.4 nM.

Which Kd (HLA-A*30:02; [5]) does the source give for GCGRGGWSYY here?
The Kd was 9.43 nM.

How did the Kd (HLA-A*02:01 [1]; [8]) turn out when GIYHDICEI was run?
Its Kd is 162 nM.

And the Kd (HLA-A*69:01; [8])?
The Kd was at least 20000 nM.

What does the source list for GLYPQLSAI?
Kd (HLA-A*02:01 [1]; [9]): 123 nM; Kd (HLA-A*69:01; [9]): 3860 nM

With GVNKQTAMK as the sequence, how does the Kd (HLA-A*11:01; [10]) read?
Its Kd is 20.3 nM.

And the Kd (HLA-A*03:01; [10])?
Its Kd is 600 nM.

Which results are given for HLAGFIHAC?
Kd (HLA-B*15:01; [11]): 2280 nM; Kd (HLA-A*02:01 [1]; [11]): 21.5 nM

HLALTCILK was tested. Which Kd (HLA-A*03:01; source organism: Salmonella enterica subsp. enterica serovar Typhi) did it give?
The Kd was 123 nM.

Which results are given for IASKINNNRI?
Kd (HLA-A*02:02; [12]): 732 nM; Kd (HLA-A*02:06; [12]): 9420 nM; Kd (HLA-A*02:03; [12]): 18500 nM

What does the source list for IIGHIGHHYI?
Kd (HLA-A*02:02; [12]): 400 nM; Kd (HLA-A*02:06; [12]): 1350 nM; Kd (HLA-A*02:03; [12]): 186 nM

Which results are given for IINSVSIILA?
Kd (HLA-A*02:02; [12]): 719 nM; Kd (HLA-A*02:06; [12]): 957 nM; Kd (HLA-A*02:03; [12]): 890 nM

What does the source list for IISTDQDTM?
Kd (HLA-A*02:02; [12]): 4300 nM; Kd (HLA-A*02:06; [12]): 2360 nM; Kd (HLA-A*02:03; [12]): ≥ 33200 nM

For ILGRYLPEF, which Kd (HLA-B*15:01; [13]) is on record?
The Kd was 150 nM.

And the Kd (HLA-B*58:01)?
Its Kd is 146 nM.

And the Kd (HLA-A*02:01 [1]; [13])?
The Kd was 4130 nM.

What about the Kd (HLA-A*69:01; [13]) of the same sequence?
Its Kd is 18100 nM.

Which Kd (HLA-A*02:01 [2]; source organism: Vaccinia virus Copenhagen) does the source give for ILLSCIHTT here?
The Kd was 1.2 nM.

How did the Kd (HLA-A*03:01; source organism: Giardia lamblia ATCC 50803) turn out when IMKQAASMK was run?
The Kd was 63.5 nM.

IMLKANFSV was tested. Which Kd (HLA-A*02:01 [2]; source organism: Influenza A virus (A/Hokkaido/20/89(H3N2))) did it give?
The Kd was 0.3 nM.

How did the Kd (HLA-A*02:02; [12]) turn out when IMTSTRTIIL was run?
The Kd was 1020 nM.

What about the Kd (HLA-A*02:06; [12]) of the same sequence?
The Kd was 438 nM.

What about the Kd (HLA-A*02:03; [12]) of the same sequence?
Its Kd is 52.5 nM.

How did the Kd (HLA-A*30:02; [5]) turn out when IWLKLREVY was run?
Its Kd is at least 76900 nM.

For KAMHDKKIDI, which Kd (HLA-A*02:02; [12]) is on record?
Its Kd is at least 70000 nM.

And the Kd (HLA-A*02:06; [12])?
Its Kd is at least 26400 nM.

What about the Kd (HLA-A*02:03; [12]) of the same sequence?
The Kd was at least 46200 nM.

For KGGEAQFLV, which Kd (HLA-B*58:01) is on record?
The Kd was 738 nM.

How did the Kd (HLA-A*02:02; [12]) turn out when KILSDENYL was run?
Its Kd is 196 nM.

And the Kd (HLA-A*02:06; [12])?
The Kd was 27.6 nM.

What about the Kd (HLA-A*02:03; [12]) of the same sequence?
The Kd was 1170 nM.

For KISNTTFEV, which Kd (HLA-A*02:01 [2]; source organism: Vaccinia virus) is on record?
Its Kd is 1.9 nM.

For KLLNMRDLIV, which Kd (HLA-A*02:02; [12]) is on record?
Its Kd is 194 nM.

And the Kd (HLA-A*02:06; [12])?
Its Kd is 2.77 nM.

And the Kd (HLA-A*02:03; [12])?
Its Kd is 29.4 nM.

How did the Kd (HLA-A*02:02; [12]) turn out when KLLYAAEMV was run?
The Kd was 57.6 nM.

What about the Kd (HLA-A*02:06; [12]) of the same sequence?
Its Kd is 17.9 nM.

What about the Kd (HLA-A*02:03; [12]) of the same sequence?
The Kd was 54.3 nM.

For KLTFLDVEV, which Kd (HLA-A*02:01 [2]; source organism: Variola virus) is on record?
The Kd was 10.1 nM.

For KLYSYGIGY, which Kd (HLA-A*11:01; [14]) is on record?
The Kd was 75.4 nM.

And the Kd (HLA-A*03:01; [14])?
Its Kd is 1.4 nM.

What does the source list for KQNKFGDSPL?
Kd (HLA-A*02:02; [12]): 89.6 nM; Kd (HLA-A*02:06; [12]): 5080 nM; Kd (HLA-A*02:03; [12]): 216 nM

With KTVAGSFAS as the sequence, how does the Kd (HLA-A*02:02; [15]) read?
The Kd was 1590 nM.

And the Kd (HLA-A*02:06; [15])?
The Kd was 9130 nM.

And the Kd (HLA-A*02:03; [15])?
Its Kd is 3810 nM.

How did the Kd (HLA-A*30:02; [7]) turn out when KVASEGFQY was run?
The Kd was 28.9 nM.

With LAEHISDSI as the sequence, how does the Kd (HLA-A*02:02; [12]) read?
Its Kd is 45.2 nM.

What about the Kd (HLA-A*02:06; [12]) of the same sequence?
Its Kd is 19200 nM.

What about the Kd (HLA-A*02:03; [12]) of the same sequence?
The Kd was 731 nM.

How did the Kd (HLA-B*53:01; [4]) turn out when LAGFMAYMI was run?
The Kd was 2120 nM.

And the Kd (HLA-B*51:01; [4])?
Its Kd is 7090 nM.

Which Kd (HLA-B*51:01; [5]) does the source give for LAYVVIGIL here?
The Kd was 1320 nM.

With LEKTHNGKL as the sequence, how does the Kd (HLA-B*40:01; source organism: Influenza A virus (A/RI/5-/1957(H2N2))) read?
Its Kd is 124 nM.

Which Kd (HLA-A*02:02; [12]) does the source give for LINLVQYRIL here?
The Kd was 2120 nM.

And the Kd (HLA-A*02:06; [12])?
The Kd was 15900 nM.

What about the Kd (HLA-A*02:03; [12]) of the same sequence?
Its Kd is 2250 nM.

What does the source list for LISILMIFI?
Kd (HLA-A*02:02; [12]): 2370 nM; Kd (HLA-A*02:06; [12]): 7040 nM; Kd (HLA-A*02:03; [12]): ≥ 5000 nM

Which results are given for LISSDGARVI?
Kd (HLA-A*02:02; [12]): 7180 nM; Kd (HLA-A*02:06; [12]): ≥ 35000 nM; Kd (HLA-A*02:03; [12]): 1150 nM

Which results are given for LIVILFIMFM?
Kd (HLA-A*02:02; [12]): 85.1 nM; Kd (HLA-A*02:06; [12]): 120 nM; Kd (HLA-A*02:03; [12]): 433 nM

LLFLKDVEP was tested. Which Kd (HLA-A*02:01 [2]; [12]) did it give?
The Kd was 13.4 nM.

What does the source list for LLNMRDLIV?
Kd (HLA-A*02:02; [12]): 665 nM; Kd (HLA-A*02:06; [12]): 225 nM; Kd (HLA-A*02:03; [12]): 1.23 nM

LNIALVAVSL was tested. Which Kd (HLA-A*02:02; [16]) did it give?
The Kd was 179 nM.

And the Kd (HLA-A*02:06; [16])?
Its Kd is 13100 nM.

And the Kd (HLA-A*02:03; [16])?
The Kd was 12400 nM.

For LPEEQDQNYV, which Kd (HLA-B*51:01; [5]) is on record?
Its Kd is 11900 nM.

With LTKDRKMLEL as the sequence, how does the Kd (HLA-A*02:02; [12]) read?
The Kd was 7700 nM.

And the Kd (HLA-A*02:06; [12])?
Its Kd is at least 20800 nM.

What about the Kd (HLA-A*02:03; [12]) of the same sequence?
Its Kd is 133 nM.

With LTSSSKYTY as the sequence, how does the Kd (HLA-A*01:01; source organism: Amur virus) read?
Its Kd is 33 nM.
